Assay results reported in US20230080224A1 (AGENCY FOR SCIENCE TECHNOLOGY AND RESEARCH, published 2023).
Residue numbers refer to the chain shown, from its start.

B1: AB2C103 (antibody, V domains shown)
VH: QSLEESGGDLVKPGASLTLTCTASGFDFSSYYWICWVRQAPGKGLEWIACIYGGSSGSTYYATWAKGRFTISETSSTTVTLQMTSLTAADMATYFCARSLYTWRYADYAASTLNLWGPGTLVTVSS
VL: AVLTQTPSPVSAAVGGTVSISCQSSQSVYNVNLLAWYQQKPGQPPKLLIYETSKLESGVPSRFSGSGSGTQFTLTISDVQCDDAATYYCAGGYSSSKDNSFGGGTEVVVK
notes: Rabbit antibody cloned from a single B cell
B2: AB1C21 (antibody, V domains shown)
VH: QQQLVESGGGLVKPGASLTLTCKASGFSFSSGYDMCWVRQAPGKGLEWIACIYTGDGSTYYASWARGRFTISKTSSTTVTLQMTSLTAADTATYFCAREDVSSGDYTFNLWGPGTLVTVSS
VL: YDMTQTPASVEVTVGGTVTIKCQASEDIYSGLAWYQQKPGQRPKLLIYKASNLASGVPSRFSGSGSGTEFTLTISGVECADAATYYCQQGVTYSNVDNTFGGGTEVVVK
notes: as for B1
B3: AB1C35 (antibody, V domains shown)
VH: QEQLKESGGDLVKPGASLTLTCTASGFTLSTYWVCWVRQAPGKGLEWIGCIDTVSSGDTYFASWAKGRFTGSKTSSTTVTLQMTSLTAADTATYFCARRTGSRWTLWGPGTLVTVSS
VL: QVLTQTPSSVSAGVGGTVTINCQASESVYNNNYLSWYQQKPGQPPKLLIYQASTLASGVPSRFKGSGSGTQFTLTISDVQCDDAATYYCLGAFVSNGWYFAFGGGTEVVVK
notes: as for B1
B4: AB1C17 (antibody, V domains shown)
VH: B3 VH with R103G
VL: LVMTQTPSPVSAAVGGTVTISCQSSQSVYNNNYLAWFQQNPGQPPKLLIYWASKLASGVPSRFKGSGSGTQFTLTISDVQCDDAATYYCLGAYVSNGWYFAFGGGTEVVVK
notes: as for B1
B5: AB1C28 (antibody, V domains shown)
VH: B3 VH with R103G
VL: B4 VL with T106I
notes: as for B1
B6: AB2C128 (antibody, V domains shown)
VH: QSLEESGGDLVKPGASLTLTCTASGFSFSSSYWIYWVRQAPGKGLEWIACIYTASRGSIYYASWTKGRFTISKTSSTTVTLQMTSLTAADTATYFCARGPDYTYGYIGDALTRLDLWGQGTLVTVSS
VL: AVLTQTPSPVSAAVGGTVSISCQSSQSVYDNNWLAWYQQKAGQPPKLLIYAASTLSSGVPSRFKGSGSGIEFTLTISDVQCDDAATYYCAGGYSSTSDIEDNTFGGGTEVVVK
notes: as for B1
B7: AB2C135 (antibody, V domains shown)
VH: B6 VH with Y35C, G57D, T65A, D101Y, T103S, G105A
VL: B6 VL with A41P, A51E, T54K, S56A, I70T, E71Q, D78G, A85S, T96S
notes: as for B1
B8: AB1C18 (antibody, V domains shown)
VH: QSLEESGGDLVKPGASLTLTCTASGFSFSSYWTCWVRQAPGKGLEWLGCTDGGSSGDTYYATWAKGRVAISKTSSTTVTLQVTSLTAADTATYFCARNLITWDLWGPGTLVTVSS
VL: IVMTQTPSSKSVPVGDTVTINCQASESVYNNNQLSWFQQKPGQPPKLLIYWASKLASGVPSRFKGSGSGTQFTLTISDVVCDDAATYYCAGYKSSITDGNAFGGGTEVVVK
notes: as for B1
B9: AB1C32 (antibody, V domains shown)
VH: QEQLEESGGDLVKPGGTLTLTCKASGIDFSSDYYMCWVRQAPGKGLEWIACIYTGSSDDTYYASWAKGRFTISKTSSPTVALQMTSLTAADTATYFCARGGYGGKDLWGPGTLVTVSS
VL: VVMTQTPASVEAAVGGTVTIKCQASQSIGSLLAWYQQKPGQPPNLLIYWASTLASGVPSRFKGSGSGTEFTLTISDLECDDAATYYCQCTYGSSGSSSYLNAFGGGTEVVVK
notes: as for B1
B10: AB1C14 (antibody, V domains shown)
VH: QSLEESGGDLVKPGASLTLTCTASGFSFSSNYWICWVRQAPGKGLEWIACIATGSSGSTYYASWAKGRFTISKTSSTTVTLQMTSLTAADTATYFCARGEYTYGYVEYAIVTQYYFDLWGPGTLVTVSS
VL: FEMTQTPSSVSAAVGGTVTINCQASQNIYSNLAWYQQKPGQRPKLLIYGASNLESGVPSRFKGSGSGTEYTLTISDLECDDAATYYCQSADYIGSAYNAFGGGTEVVVK
notes: as for B1
B11: AB1C23 (antibody, V domains shown)
VH: QSLEESGGDLVKPGASLTLTCTASGFSFSSTYYMCWVRQAPGKGLEWIACIYTGSTGSTYYASWAKGRFTGSKTSSTTVTLQMTSLTAADTATYFCARGDYTYAYAGGAHVTNYYFDLWGPGTLVTVSS
VL: LVMTQTPSSVSAAVGGTVTINCQASQNIYSNLAWYQQKPGQRPKLLIFGASNLESGVPSRFKGSGSGTEFTLTISDLECDDAATYYCQTADYSSSTDWGAFGGGTEVVVK
notes: as for B1
B12: AB1C11 (antibody, V domains shown)
VH: QSLEESGGDLVKPGASLTLTCKASGFTISSIWICWVRQAPGKGLEWIACIYAGSDGGSYYASWARGRFTISKTSSTTVTLQMTSLTAADTATYFCARASNSWQYGYAGYGNYKDYFNLWGPGTLVTVSS
VL: FELTQTPSSVEAVVGGTVTINCQASESISNLLAWYQQKSGQPPKVLIYKASALPSGVSSRFKGSGSGTEFTLTISDLECADAATYYCQSYYGSSDTGNTFGGGTEVVVK
notes: as for B1
B13: AB1C15 (antibody, V domains shown)
VH: QSLEESGGDLVKPGASLTLTCTASGFSFSSSYYMCWVRQAPGKGLEWIACIYTTYGGTWYASWAKGRFTISKTSSTTVTLQMTSLTDADTATYFCARSSISDVTYFNLWGPGTLVTVSS
VL: DIVMTQTPASVEAAVGGTVTIKCQASQSISNYLAWYQQKPGQPPELLIYRASTLESGVPSRFKGSGSGTGFTLTISDLECADAATYYCQSYYDNNNYAFGGGTEVVVK
notes: as for B1
B14: AB1C34 (antibody, V domains shown)
VH: QSLEESGGDLVKPGASLTLTCTASGFDFSSNGMCWVRQAPGKGLEWIACIYVDSSDSTYYASWVNGRFTISKTSSTTVTLQMTSLTAADTATYFCARGYGYVGSAMDLWGQGTLVTVSS
VL: NIVMTQTPSPVSGAVGGTVTIKCQASQSISNELAWFQQKPGQRPKLLIYGASTLESGVPSRFSGSGSGTEFTLTISDLECADAATYYCQSAYYSSSSSYANTFGGGTEVVVK
notes: as for B1
B15: AB1C39 (antibody, V domains shown)
VH: QSLEESGGDLVKPGASLTLTCTASGFSFSSSYYMCWVRQAPGKGLEWIACIYAGSSGGTYYASWAKGRFTISKTSSTTVTLQMTSLTAADTATYFCARAFSYYYSDGYTGYAYGLWGPGTLVTVSS
VL: DIVMTQTPASVEAAVGGTVTIKCQASQSISSYLAWYQQKPGQPPKLLIYRASTLASGVPSRFKGSGSGTQFTLTISDLECADAATYYCQGAYYSSSSSYGFGGGTEVVVK
notes: as for B1
B16: AB1C13 (antibody, V domains shown)
VH: QEQLEESGGDLVKPEGSLTLTCTASGFSFSWICWVRQAPGKGLEWIACIYAGSSAKTYYASWAKGRFTISKASSTTVTLQMTSLTAADTATYFCARASNYYRYGVAGYADYTGYFNLWGPGTLVTVSS
VL: FELTQTPASVEAAVGGTVTIKCQASQSISSWLAWYHQKPGQRPKLLIYGTSTLASGVPSRFKGSGSGTEFTLTISDLECADAATYYCQNYGGSSSGDAFGGGTEVVVK
notes: as for B1

target: T1, human ALPPL2 (recombinant protein) (human, UniProt P10696 20-503, limits assumed); experiment: screen of rabbit B-cell clones by ELISA and FACS
T1 construct: biotinylated where captured on streptavidin
Description: (§1) Specific clones were screened and identified by ELISA and high throughput flow cytometry (FIG. 3). Rabbit kidney cells were transfected with either truncated (for ELISA screen) or full-length (for FACS screen) ALPI and ALPPL2.

Row | binding result | Binder
1 | binds | B1
2 | binds | B2
3 | binds | B3
4 | binds | B4
5 | binds | B5
6 | binds | B6
7 | binds | B7
8 | binds | B8
9 | binds | B9
10 | binds | B10
11 | binds | B11
12 | binds | B12
13 | binds | B13
14 | binds | B14
15 | binds | B15

target: T2, ALPI (screening and SPR/ELISA protein) (UniProt P09923 20-503, limits assumed); experiment: screen of rabbit B-cell clones by ELISA and FACS
T2 sequence (looked up): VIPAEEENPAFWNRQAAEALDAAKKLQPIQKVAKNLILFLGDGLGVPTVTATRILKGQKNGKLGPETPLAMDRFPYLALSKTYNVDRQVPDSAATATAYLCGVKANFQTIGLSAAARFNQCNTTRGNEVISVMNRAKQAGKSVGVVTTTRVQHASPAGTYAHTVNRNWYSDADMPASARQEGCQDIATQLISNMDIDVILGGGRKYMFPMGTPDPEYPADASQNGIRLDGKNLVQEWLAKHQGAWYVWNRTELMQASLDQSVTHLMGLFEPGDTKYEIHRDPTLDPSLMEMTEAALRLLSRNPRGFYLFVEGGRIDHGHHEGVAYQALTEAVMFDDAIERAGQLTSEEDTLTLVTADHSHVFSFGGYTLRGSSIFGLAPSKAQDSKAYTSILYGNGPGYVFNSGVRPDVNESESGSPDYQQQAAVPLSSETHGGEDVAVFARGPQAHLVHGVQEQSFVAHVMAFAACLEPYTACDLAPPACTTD
Description: as §1

Row | binding result | Binder
16 | no binding | B1
17 | no binding | B2
18 | no binding | B3
19 | no binding | B4
20 | no binding | B5
21 | no binding | B6
22 | no binding | B7
23 | no binding | B8
24 | no binding | B9
25 | no binding | B10
26 | no binding | B11
27 | no binding | B12
28 | no binding | B13
29 | no binding | B16
30 | no binding | B14
31 | no binding | B15

Target: T3, human ALPPL2 (recombinant protein) (human, UniProt P10696 20-503)
T3 chain: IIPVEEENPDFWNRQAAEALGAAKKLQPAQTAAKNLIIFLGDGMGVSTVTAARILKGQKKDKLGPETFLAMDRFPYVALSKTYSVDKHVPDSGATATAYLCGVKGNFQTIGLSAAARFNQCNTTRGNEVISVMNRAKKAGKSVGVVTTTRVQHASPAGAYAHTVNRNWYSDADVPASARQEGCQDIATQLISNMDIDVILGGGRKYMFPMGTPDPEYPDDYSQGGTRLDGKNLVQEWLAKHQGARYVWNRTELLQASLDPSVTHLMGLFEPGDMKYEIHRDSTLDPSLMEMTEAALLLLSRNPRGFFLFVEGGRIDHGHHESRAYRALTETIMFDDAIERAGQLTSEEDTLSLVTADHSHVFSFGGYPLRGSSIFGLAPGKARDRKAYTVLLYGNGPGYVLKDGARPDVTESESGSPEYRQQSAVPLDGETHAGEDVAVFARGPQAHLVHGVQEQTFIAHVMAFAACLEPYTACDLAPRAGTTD
Experiment: BLI; single concentration

Row | Kd | Binder
32 | 1.4 nM | B2
33 | 4.1 nM | B3
34 | 1.4 nM | B8
35 | 0.6 nM | B13
36 | 2 nM | B15
